Assays:
Experiment in all cases: cell-based or functional assay
[1] = target: TGFβR2-IL21Rβ signaling redirector receptor
[2] = target: TGFβR2-IL2Rβ signaling redirector receptor
[3] = target: TGFβR2-IL12Rβ signaling redirector receptor

Measured: increase in tumor cell numbers over base input after three rounds of restimulation, with recombinant TGFβ

TGFβR2-IL2Rβ signaling redirector receptor, sequence (chain, as listed by the source): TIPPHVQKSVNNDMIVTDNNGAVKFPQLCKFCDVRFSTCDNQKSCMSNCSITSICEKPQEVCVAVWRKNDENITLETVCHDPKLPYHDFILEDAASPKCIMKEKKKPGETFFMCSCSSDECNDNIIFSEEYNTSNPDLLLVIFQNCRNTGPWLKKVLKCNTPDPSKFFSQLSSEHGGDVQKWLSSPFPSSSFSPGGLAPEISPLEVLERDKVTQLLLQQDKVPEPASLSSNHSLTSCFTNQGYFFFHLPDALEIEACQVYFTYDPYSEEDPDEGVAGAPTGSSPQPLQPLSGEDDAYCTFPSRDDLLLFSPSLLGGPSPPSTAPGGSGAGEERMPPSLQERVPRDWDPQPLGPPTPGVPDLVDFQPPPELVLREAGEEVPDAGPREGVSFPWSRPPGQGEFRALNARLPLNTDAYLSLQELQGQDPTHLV
TGFβR2-IL21Rβ signaling redirector receptor, sequence (chain, as listed by the source): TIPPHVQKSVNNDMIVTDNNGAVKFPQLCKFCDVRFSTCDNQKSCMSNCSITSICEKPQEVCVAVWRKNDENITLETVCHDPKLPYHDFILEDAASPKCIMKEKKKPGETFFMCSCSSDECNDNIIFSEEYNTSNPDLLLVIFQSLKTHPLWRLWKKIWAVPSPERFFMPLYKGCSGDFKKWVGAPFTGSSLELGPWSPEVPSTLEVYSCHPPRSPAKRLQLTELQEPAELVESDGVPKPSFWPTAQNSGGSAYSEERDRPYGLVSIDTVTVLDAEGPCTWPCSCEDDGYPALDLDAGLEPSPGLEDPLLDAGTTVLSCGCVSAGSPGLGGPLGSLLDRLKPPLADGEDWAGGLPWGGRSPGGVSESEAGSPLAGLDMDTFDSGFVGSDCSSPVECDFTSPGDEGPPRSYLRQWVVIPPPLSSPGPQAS
TGFβR2-IL12Rβ signaling redirector receptor, sequence (main, as listed by the source): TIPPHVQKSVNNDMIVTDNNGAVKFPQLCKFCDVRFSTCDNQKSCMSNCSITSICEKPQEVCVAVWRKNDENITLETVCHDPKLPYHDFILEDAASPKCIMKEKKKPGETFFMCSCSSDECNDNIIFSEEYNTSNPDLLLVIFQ

recombinant TGFβ (ligand)
1.5 fold: [1] | [2] | [3]

Source: patent publication US20250000904A1
